Assay results from US20090048117.

Assays:
[1] = test system: T1, GST-NIP45 fusion protein (bacterially expressed, full length NIP45)
T1 sequence: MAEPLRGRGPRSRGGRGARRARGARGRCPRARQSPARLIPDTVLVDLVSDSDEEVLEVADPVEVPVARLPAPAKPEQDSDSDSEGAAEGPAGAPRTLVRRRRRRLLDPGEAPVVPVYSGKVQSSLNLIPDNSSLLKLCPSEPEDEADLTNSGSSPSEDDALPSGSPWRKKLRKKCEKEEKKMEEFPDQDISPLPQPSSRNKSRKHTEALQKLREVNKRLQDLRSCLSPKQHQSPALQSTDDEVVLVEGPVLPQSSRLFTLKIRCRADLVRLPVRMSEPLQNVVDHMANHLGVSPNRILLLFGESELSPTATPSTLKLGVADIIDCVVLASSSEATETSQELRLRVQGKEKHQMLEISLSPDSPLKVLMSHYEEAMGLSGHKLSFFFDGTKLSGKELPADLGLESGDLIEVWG

[2] = test system: Histone H3

Substance	in vitro methylation assay with affinity purified PRMTs and GST-NIP45 [1]	in vitro methylation assay with recombinant proteins [2]
Flag epitope tagged CARM1 immunoprecipitated from 293 cell extracts	In this assay, only PRMT1 was capable of methylating NIP45	
Flag epitope tagged PRMT3 immunoprecipitated from 293 cell extracts	In this assay, only PRMT1 was capable of methylating NIP45	
Flag epitope tagged PRMT5 immunoprecipitated from 293 cell extracts	In this assay, only PRMT1 was capable of methylating NIP45	
GST-CARM1		CARM1 did methylate histone H3 (lane 7)
